One block for each binder: values may come before it. No end group written: not given here.
Tests used:
[1] = target: T1, Soluble IGF-1R (R&D Systems, Cat. # 391-GR/CF); recombinant human IGF-1R (human), P08069; assay: phage ELISA, vs IR
[2] = target: T2, Insulin receptor prepared according to Bass et al., 1996: soluble human insulin receptor-immunoglobulin heavy chain chimera (human), P06213; assay: phage ELISA vs milk
[3] = target: T1, Soluble IGF-1R (R&D Systems, Cat. # …); assay: phage ELISA vs milk
[4] = target: T2, Insulin receptor prepared according to …; assay: phage ELISA, vs IGF-1R
[5] = target: soluble human insulin receptor-immunoglobulin heavy chain chimera (sIR-Fc) (human), P06213; assay: fluorescence polarization competition with FITC-RP9 for sIR-Fc; conditions: remark: other sources report otherwise
Soluble IGF-1R [6] = target: Soluble IGF-1R (UniProt P08069); assay: phage ELISA; ratio over background for IGF-1R divided by that for IR
Soluble IGF-1R [7] = target: Soluble IGF-1R (UniProt P08069)
[8] = target: Insulin receptor prepared according to Bass et al., 1996: soluble human insulin receptor-immunoglobulin heavy chain chimera (human) (UniProt P06213); assay: phage ELISA vs milk
[9] = target: Insulin receptor prepared according to Bass et al., 1996: soluble human insulin receptor-immunoglobulin heavy chain chimera (human) (UniProt P06213); assay: phage ELISA, vs IGF-1R
[10] = target: soluble human insulin mini-receptor (mIR) (human) (UniProt P06213); assay: FP competition vs FITC-RP9, mIR

B2: C1 (peptide)
peptide: CWARPCGDAANFYDWFVQQAS
- IC50 [5]: 52 nM

B6: H2C (peptide)
peptide: FHENFYDWFVQRVSKK
- IC50 [10]: 770 nM

B7: H2CA-4-E9-IGFR (peptide)
peptide: RGAVAGFHDQFYDWFDRQVSRVHKFG
- Ratio over Background [8]: 1.9 fold
- IR/IGF-1R Comparison [9]: 0.3

Continued, values first:

- IGF-1R/IR Comparison [1]: 9.4
- Ratio over Background [2]: 1.1 fold
- Ratio over Background [3]: 10.6 fold
- IR/IGF-1R Comparison [4]: 0.1
B1: 20E2B-2-B11-IGFR (peptide)
peptide: VVTPVNFYRALEALVRGXRLG
modifications: not fully specified; printed as VVTPVNFYRALEALVRG.RLG; X: residue not identified in the source

- IGF-1R/IR ratio comparison (Soluble IGF-1R [6]): 1.4
- ratio over background, IGF-1R (ratio over background) (Soluble IGF-1R [7]): 2
B3: 26L-3-G5-IR (peptide)
peptide: AETSAQVGWQRLWSVWPGDHWSTLDPFYHKLSELLRESGA
modifications: not fully specified (residue 27, N-terminus, C-terminus); printed as AETSAQVGWQRLWSVWPGDHWSTLDP9YHKLSELLRESGA

- Ratio over Background [8]: 1 fold
- IR/IGF-1R Comparison [9]: 0
B4: B6Hα-1-B5-IR (peptide)
peptide: CCTTEMVVMDARDDPFYHKLSELVTGG

- Ratio over Background [8]: 2 fold
- IR/IGF-1R Comparison [9]: 0.1
B5: A6L-0-H3-IR (peptide)
peptide: YRGMLVLGRISGGAGKAASERPARIGQKVSAVNFYDWFV

Reference: patent US20030236190A1
